Source: PMC4256367

Biological target: hTau40 (Tau, 2N4R) 1-441 (UniProt P10636)
Experiment: fluorescence lifetime (TCSPC) over time
[1] = reference: unlabelled P0-Tau (E. coli), sites S202,T205,T212,S214,T231,S235,S262,S356,S396,S404,Y310,S324,T153

Substance	other: final average lifetime [1]	other results
hTau40 (Tau, 2N4R) 1-441 (from UniProt P10636-8) P12-Tau incubated with alkaline phosphatase (P4-Tau)	–	other: final average lifetime (reference: P12-Tau untreated, sites S202,T205,T212,S214,T231,S235,S262,S356,S396,S404): weaker; reference 0.6
hTau40 (Tau, 2N4R) 1-441 (from UniProt P10636-8) P20-Tau (Sf9 cells treated with okadaic acid)	–	other: final average lifetime (reference: P12-Tau (Sf9, no okadaic acid)): stronger; reference 0.6
hTau40 (Tau, 2N4R) 1-441 (from UniProt P10636-8) unlabelled P12-Tau (Sf9)	stronger; reference 3.8	–
hTau40 (Tau, 2N4R) 1-441 (from UniProt P10636-8) unlabelled P20-Tau (Sf9 + okadaic acid)	stronger; reference 3.8	–
